The target in experiment [1] is T1, histidine (His)-tagged full-length dAbp1 (Dictyostelium discoideum, UniProt Q557J6 1-481).
T1 sequence (looked up): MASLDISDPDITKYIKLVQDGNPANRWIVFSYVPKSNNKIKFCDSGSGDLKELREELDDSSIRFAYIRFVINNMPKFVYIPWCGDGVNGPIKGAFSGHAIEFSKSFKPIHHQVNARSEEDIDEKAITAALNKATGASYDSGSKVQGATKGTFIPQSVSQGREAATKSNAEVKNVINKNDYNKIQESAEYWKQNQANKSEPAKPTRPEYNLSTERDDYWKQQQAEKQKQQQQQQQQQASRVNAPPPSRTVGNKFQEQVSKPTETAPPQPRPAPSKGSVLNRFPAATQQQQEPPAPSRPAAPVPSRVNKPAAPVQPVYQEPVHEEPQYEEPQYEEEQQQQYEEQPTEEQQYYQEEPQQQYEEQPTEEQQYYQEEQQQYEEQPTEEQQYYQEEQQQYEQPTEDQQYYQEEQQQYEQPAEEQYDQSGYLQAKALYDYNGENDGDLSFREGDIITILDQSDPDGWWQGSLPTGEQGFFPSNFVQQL
Briefly: pull-down.

The target in experiment [2] is T2, His-tagged dAbp1-237-313 fragment (Dictyostelium discoideum, UniProt Q557J6 237-313).
T2 sequence (looked up): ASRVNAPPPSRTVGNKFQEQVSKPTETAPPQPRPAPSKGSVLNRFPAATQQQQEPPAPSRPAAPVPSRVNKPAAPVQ
Briefly: pull-down.

In experiment [3] the target is rabbit muscle actin filaments (rabbit, UniProt P68135 1-377). Put plainly: co-sedimentation.

B1: GST-dAbp1-SH3 domain fusion protein (domain or fragment, Dictyostelium discoideum, UniProt Q557J6 426-481, looked up)
chain: QAKALYDYNGENDGDLSFREGDIITILDQSDPDGWWQGSLPTGEQGFFPSNFVQQL
On to B1, for which the binding result in experiment [1] and in experiment [2] was “binds” each time.

B2: GST-dAbp1 (natural protein)
chain: T1 sequence (looked up)
On to B2, for which the “Kd in the presence of an equimolar amount of GST-PakB-1-120” value in experiment [3] turned out to be 1.1 ± 0.4 µM.

The values are drawn from publication PMC3708727 (Molecular Biology of the Cell, 2013).
